This note sets out measurements from PMC7413564, “Phase separation of Arabidopsis EMB1579 controls transcription, mRNA splicing, and development” (PLoS Biology, 2020).

The assay has as its target T1, Oregon Green-labeled EMB1579 (Arabidopsis thaliana, UniProt F4IS91-1 1-1340, Oregon Green label (site not stated)).
T1 construct: full-length CDS amplified from seedling cDNA; phase-separated in F-buffer in the assay; also called Oregon Green-EMB1579; EMB1579 condensates; source: Sf9 insect cells (pFastBac1-EMB1579), purified (Ni-NTA, SuperDex 200 Increase), labelled with Oregon Green
T1 sequence (looked up): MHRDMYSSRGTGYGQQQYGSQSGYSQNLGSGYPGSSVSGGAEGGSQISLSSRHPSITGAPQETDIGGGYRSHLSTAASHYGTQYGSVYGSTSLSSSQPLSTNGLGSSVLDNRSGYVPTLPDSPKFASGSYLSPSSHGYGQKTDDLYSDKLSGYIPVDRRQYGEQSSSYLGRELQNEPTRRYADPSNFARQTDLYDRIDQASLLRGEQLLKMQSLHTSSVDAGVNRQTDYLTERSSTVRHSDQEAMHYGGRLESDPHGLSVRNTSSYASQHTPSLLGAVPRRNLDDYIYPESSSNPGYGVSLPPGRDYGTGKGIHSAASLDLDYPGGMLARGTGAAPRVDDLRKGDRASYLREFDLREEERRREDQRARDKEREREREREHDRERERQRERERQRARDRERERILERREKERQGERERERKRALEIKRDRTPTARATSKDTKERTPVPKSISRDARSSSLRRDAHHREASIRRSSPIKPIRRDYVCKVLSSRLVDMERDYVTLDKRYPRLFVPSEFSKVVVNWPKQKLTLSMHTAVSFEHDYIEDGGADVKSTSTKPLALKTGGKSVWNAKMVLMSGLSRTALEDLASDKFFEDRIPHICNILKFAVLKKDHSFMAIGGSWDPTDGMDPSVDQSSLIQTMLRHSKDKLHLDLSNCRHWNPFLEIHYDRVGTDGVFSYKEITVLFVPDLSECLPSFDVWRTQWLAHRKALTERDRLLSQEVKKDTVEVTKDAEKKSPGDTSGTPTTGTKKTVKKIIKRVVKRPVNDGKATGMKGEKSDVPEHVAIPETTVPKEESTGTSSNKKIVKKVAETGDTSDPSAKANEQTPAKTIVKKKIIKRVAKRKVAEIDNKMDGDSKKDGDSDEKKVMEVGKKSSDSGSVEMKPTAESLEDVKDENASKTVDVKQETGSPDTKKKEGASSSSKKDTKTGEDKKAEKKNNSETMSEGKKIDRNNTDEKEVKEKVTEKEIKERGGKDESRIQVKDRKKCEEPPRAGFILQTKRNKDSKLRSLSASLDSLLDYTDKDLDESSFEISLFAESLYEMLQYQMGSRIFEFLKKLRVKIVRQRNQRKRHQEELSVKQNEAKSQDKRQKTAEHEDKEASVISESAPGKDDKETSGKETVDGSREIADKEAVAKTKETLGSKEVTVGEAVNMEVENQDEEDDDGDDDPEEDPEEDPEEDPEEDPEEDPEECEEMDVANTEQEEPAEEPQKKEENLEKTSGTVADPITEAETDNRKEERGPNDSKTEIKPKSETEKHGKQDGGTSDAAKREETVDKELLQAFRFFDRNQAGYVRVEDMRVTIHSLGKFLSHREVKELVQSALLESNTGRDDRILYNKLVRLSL
The experiment in a line: recruitment into condensates in vitro (confocal fluorescence microscopy); Oregon Green-labeled EMB1579 (2.5 μM) with mCherry-DDB1B (500 nM) or mCherry-MSI4 (20 nM) in F-buffer (25 mM Hepes pH 8.0, 100 mM KCl, 100 mg/ml PEG 3350), 5 minutes, room temperature. The conditions noted are these: both partners purified.

B1: mCherry-DDB1B (natural protein, Arabidopsis thaliana, UniProt O49552 1-1088, looked up)
chain: MSVWNYAVTAQKPTCVTHSCVGNFTSPQELNLIVAKSTRIEIHLLSPQGLQTILDVPLYGRIATMELFRPHGEAQDFLFVATERYKFCVLQWDYESSELITRAMGDVSDRIGRPTDNGQIGIIDPDCRVIGLHLYDGLFKVIPFDNKGQLKEAFNIRLEELQVLDIKFLYGCTKPTIAVLYQDNKDARHVKTYEVSLKDKNFVEGPWSQNNLDNGADLLIPVPSPLCGVLIIGEETIVYCSANAFKAIPIRPSITKAYGRVDLDGSRYLLGDHAGLIHLLVITHEKEKVTGLKIELLGETSIASSISYLDNAVVFVGSSYGDSQLIKLNLQPDAKGSYVEILEKYVNLGPIVDFCVVDLERQGQGQVVTCSGAYKDGSLRIVRNGIGINEQASVELQGIKGMWSLKSSIDEAFDTFLVVSFISETRILAMNIEDELEETEIEGFLSEVQTLFCHDAVYNQLVQVTSNSVRLVSSTTRELRNKWDAPAGFSVNVATANASQVLLATGGGHLVYLEIGDGTLTEVKHVLLEYEVSCLDINPIGDNPNYSQLAAVGMWTDISVRIFVLPDLTLITKEELGGEIIPRSVLLCAFEGISYLLCALGDGHLLNFQLDTSCGKLRDRKKVSLGTRPITLRTFSSKSATHVFAASDRPAVIYSNNKKLLYSNVNLKEVSHMCPFNSAAFPDSLAIAREGELTIGTIDDIQKLHIRTIPIGEHARRICHQEQTRTFAISCLRNEPSAEESESHFVRLLDAQSFEFLSSYPLDAFECGCSILSCSFTDDKNVYYCVGTAYVLPEENEPTKGRILVFIVEEGRLQLITEKETKGAVYSLNAFNGKLLASINQKIQLYKWMLRDDGTRELQSECGHHGHILALYVQTRGDFIAVGDLMKSISLLIYKHEEGAIEERARDYNANWMTAVEILNDDIYLGTDNCFNIFTVKKNNEGATDEERARMEVVGEYHIGEFVNRFRHGSLVMKLPDSDIGQIPTVIFGTVSGMIGVIASLPQEQYAFLEKLQTSLRKVIKGVGGLSHEQWRSFNNEKRTAEAKGYLDGDLIESFLDLSRGKMEEISKGMDVQVEELCKRVEELTRLH
notes: DDB1B, Arabidopsis; amplified with DDB1B-EcoRI-F/DDB1B-SalI-R2 from pFGC5941-DDB1B-RFP and moved into pColdI behind mCherry; source: E. coli BL21 (DE3) (pColdI-mCherry-DDB1B), purified (Ni-NTA); not shown: mCherry, N-terminal, kept
With B1, the binding result is recorded as “binds”.

B2: mCherry-MSI4 (natural protein, Arabidopsis thaliana, UniProt O22607 1-507, looked up)
chain: MESDEAAAVSPQATTPSGGTGASGPKKRGRKPKTKEDSQTPSSQQQSDVKMKESGKKTQQSPSVDEKYSQWKGLVPILYDWLANHNLVWPSLSCRWGPQLEQATYKNRQRLYLSEQTDGSVPNTLVIANCEVVKPRVAAAEHISQFNEEARSPFVKKYKTIIHPGEVNRIRELPQNSKIVATHTDSPDVLIWDVETQPNRHAVLGAANSRPDLILTGHQDNAEFALAMCPTEPFVLSGGKDKSVVLWSIQDHITTIGTDSKSSGSIIKQTGEGTDKNESPTVGPRGVYHGHEDTVEDVAFSPTSAQEFCSVGDDSCLILWDARTGTNPVTKVEKAHDADLHCVDWNPHDDNLILTGSADNTVRLFDRRKLTANGVGSPIYKFEGHKAAVLCVQWSPDKSSVFGSSAEDGLLNIWDYDRVSKKSDRAAKSPAGLFFQHAGHRDKVVDFHWNASDPWTIVSVSDDCETTGGGGTLQIWRMSDLIYRPEEEVVAELEKFKSHVMTCASKP
notes: MSI4, Arabidopsis; amplified with MSI4-SalI-F/MSI4-XbaI-R2 from pEZS-NL-RFP-MSI4 and moved into pColdI-mCherry; also called recombinant MSI4 protein; source: E. coli BL21 (DE3) (pColdI-mCherry-MSI4), purified (Ni-NTA); not shown: mCherry, N-terminal, kept
Consider B2, for which the binding result was “binds”.
